Experiment: soluble on expression in E. coli; label from the status in PepcDB or PDB records
In the case of “MEIIRSNFKINLHKVYQAIEEADFFAIDGEFSGISNGPSVTALTSGFDTPEERYQKLKKHSMDFLLFQFGLCAFKYDHTDSKHVTKSFNFYVFPKPFSRSSPDVKFVCQSSSIDFLASQGFDFNKVFCSGIPYLNQEEERQLREQFDEKRSQANGAGALAKCPVTIPEDQKKFIDQVIEKIEDFLQSEEKRSLELDPCTGFQRKLIYQTLSWKYPKGIHVETLETDKKERHIVISKVDEEERKRREQEKYTKEQEELNDAVGFSRVIHAIANSGKLVVGHNMLLDVMHTIHQFYCPLPADLNEFKEMAICVFPRLLDTKLMASTQPFKDIINNTSLAELEKRLKETPFDPPKVESAEGFPSYDTASEQLHEAGYDAYITGLCFISMANYLGSLLSPPKMCVSARSKLIEPFFNKLFLMRVMDIPYLNLEGPDLQPKRDHVLHVTFPKEWKTSDLYQLFSAFGNIQISWIDDTSAFVSLSQPEQVQIAVNTSKYAESYRIQTYAEYVGKKQKGKQVKRKWTEDSWKEVDRKRPHMQGPCYHSNSFTAAGMLGKRTLSPDPREAALEDRESEEVSDSELEQTDSCTDPLPEGRKKSKKLKRMKKELSLAGSVSDSPAVLFEVPDTW”, the “soluble on expression in E. coli” value is reported as “soluble”.
In the case of “MEDLDALWERYREAVRAGGNPQALYQEMVWPALLALWREKPRVYPFPQAFAVSVHTLGTSPEATALAILGAGAERVYVLHTPESARFLPRLRQDTGKDLYPVEIGKSDVEAIYREVKRLLEKHPEVPVALDLTSGTKAMSAGLAAAGFFFQRFYPKVRVVYVDNEDYDPELRRPRAGTEKLRILPNPHEALAEVDALFAKELYGKGEFGQAAAYFRGMVGRTGNQAYALYALLAEMYRAWRALDFGEALKAGRKLLGQLSQNVWLNHPLNARREALEAQVALLEAVDRFLKARDFALKEGVYGLARTLLHLAQEAKEEAAVLAALYAYRALELLLQERLALLGRRAEAPGLSPEEAEALRKALAELLGVLPEEVRLPAKLGLLDLLAFLRLKGDEALGRLSLAELRGLAGALKGRNSALLVHGFDVPSPKAVEGIARLAQGLLQDLEARTALGPLSPEPVPLGF”, the “soluble on expression in E. coli” value is reported as “soluble”.
With “MSLLIKNGKIFTCEEGKIYEKGDILIKDGKISKIGEDLSQYIGEEEVIDAKGLLIFPGFIEAHCHLGLHEEGNNGAGNGTNEASEPITPQMRAIDGINPFDGGFQSAREAGVTTAVIGPGSANVIGGQFAAVKTSGICIDDMIIKESVAIKVAFGENPKRVYSGKNKMPNTRMAIAALLRETLTEAVNYKNRKIDAEIEDKDFSKNLKYEALLPLINREIPMKAHAHRADDILTAIRIAKEFNLKLTLDHCTEGHLISDYIKRENLDAIVGPTLSFNGKAETLNKTFKTPKALIDKGIKVAITTDHPVVTIDNLPLCAAMAMKEGITFNEVLEAITINPAEIIGIDERVGSLKEGKDGDLVILNGSPFEIATKTIYTIINGEVVYKDEGHHHHHH” the “soluble on expression in E. coli” value was “soluble”.
With “MTIRSYKNLNLVRANIETESRQFIENKNYSIQSIGPMPGSRAGLRVVFTRPGVNLATVDIFYNGDGSTTIQYLTGANRSLGQELADHLFETINPAEFEQVNMVLQGFVETSVLPVLELSADESHIEFREHSRNAHTVVWKIISTSYQDELTVSLHITTGKLQIQGRPLSCYRVFTFNLAALLDLQGLEKVLIRQEDGKANIVQQEVARTYLQTVMADAYPHLHVTAEKLLVSGLCVKLAAPDLPDYCMLLYPELRTIEGVLKSKMSGLGMPVQQPAGFGTYFDKPAAHYILKPQFAATLRPEQINIISTAYTFFNVERHSLFHMETVVDASRMISDMARLMGKATRAWGIIKDLYIV” the “soluble on expression in E. coli” value was “soluble”.
In the case of “MGSDKIHHHHHHMNVLIVSSSEGITLSLLRCLGLLNIKSHVISVWKSSGSSRFSRFCKNYISSFITESSQGAENIADVINDYCKQQKIDIIIPSGLLGTFLVALIKEKLSYSSVFPINDADKIYNLNNKWQFYHLLRQHNIPTPKTILIETPEQIKLLNLNFPVMVKPLDRGNGYGVKKIDSIVDLHGYISNASQINNLPILVQEYVFGYDILLNVLAENGKLIAWTINRRVPYFFEFFQDENILEIAHKIIDSCNYTGVANFDIRFDERSNSVKVIECNPRFWASFGASVSYGIDFVNLGILLAQGQKLPDNLKKEVTCTEPEKIPYPSPSQFLKGLLLAKYPFAAMKKISSDLAWQSILDPLPNIYEKIWNRLGIVNTHDGVMLNKLLSNSIRVKI”, the “soluble on expression in E. coli” value is reported as “not soluble”.
In the case of “HMNFKMEHQNKRSPLHAAAEAGHVDICHMLVQAGANIDTCSEDQRTPLMEAAENNHLEAVKYLIKAGALVDPKDAEGSTCLHLAAKKGHYEVVQYLLSNGQMDVNCQDDGGWTPMIWATEYKHVDLVKLLLSKGSDINIRDNEENICLHWAAFSGCVDIAEILLAAKCDLHAVNIHGDSPLHIAARENRYDCVVLFLSRDSDVTLKNKEGETPLQCASLNSQVWSALQMSKALQDSA”, the “soluble on expression in E. coli” value is reported as “soluble”.
For “MDPLTGVPIRQEVPRLMERTFQENQAETYVLFLINLDRFKLVNDSLGEGYGDQVLQTLVRRLLWQLPNQQWIARVSGDEFIACAAIKGELPKKETLATYISSIIQQPFQVDEVQFTMTASIGAAVYPMDGKSVEMIWNSLERALRHAKARGGNCVSWFCQELKDEWIHPFRLENDLRRAVENQELEHHHHHH”, the “soluble on expression in E. coli” value was “soluble”.
In the case of “MHDKMHDTGTRSDMARFNPLHGNPLKSRADVRRALDDSFAPLLPYFSPGGARVALSGTAAHFDRAAADLEGFARPLWGIAPLALSGDTFAHWPLLAKGIANGTDPAHPDYWGDVRQKDQRLVELAAIGFALRLAPQHLWEPLSDAQKENVSRYLLAARERNYADNNWKFFRVMVDMALDHLGIGFDRSLTETFQKELDDFYIADGWYRDGNYRRIDHYIAFAMHFYGLIYARLSKPDDAYAKRYRERARLFAGDFASWFDEDGGALAFGRSMTYRFACGGFWAGLAFADEEALPWGEIKGLYLSHLRWWAEKPIADRDGVLSIGYAYPQLTMSESYNSAGSPYWAFKAFLPLALPESHPFWQAQETLPKVSTNPHPLVHPGMVMMRAKGNVTALSSGQENLAMRGGPEKYAKFAYSSRYGFGVEVDERGFRTNGFDNILAFSDDGLHYRVRETNRKVLMAGANLRATWKPFPDVTVETTLVAAENWHVRLHRITSARALAVAEGGFAINRNDGERDVVSETGGKATADCGTDISAIVDLGSTISRHGVALKALPNTNLINAKTTVPQLRGEIPAGETMLACAVFAGVAGAESERALAAVPACPDLEALDRLFADRGVPVSAMAGEPQLEHHHHHH”, the “soluble on expression in E. coli” value is reported as “not soluble”.
For “MKISTQSEVEGVLIKALSEGKGIQHVELALKDLPAFDRKRARTTAITEVLTAASVAQQEAFEQSPSVEGKKWKHSGGKGIEPRSSHIELSGKVVQINETFTIPGSGELAKYPRDTDLSASERIHCHCALGPAVNEEIL”, the “soluble on expression in E. coli” value was “not soluble”.
For “MSLHAVDHHAILARFAPSRGGDGNIFRDIDPSRLAHIVVDMQNGFMEEGAPVEVPVARTIVDNINRISAAVRDAGGHNVFLRYTTPPEGGPSWSNFMVRMGREAQGHREAFTPGAHHWQLWPTLDVREADAIVDKHRFSGFTPGTCALKDVLDARGIDTVLITGTLTNCCCESTARDAMQHNYRVLMASDANAALSDEEHAATLHIMAMVFADLHSTQEVVDLLGSEGHHHHHH”, the “soluble on expression in E. coli” value was “soluble”.
With “MSNENHEELNDQLIVRREKVDTLREEGIDPFGEKFIRSISPEEIETKFADKSKEELEEAAIEVSVAGRIMTKRVKGKVGFTHIQDRFHQLQIYIRKDAIGEDAYAVFKLADLGDIIGIKGTIFRTNTGELSVKATEFTLLSKSLRPLPDKYHGLKDVEQRYRQRYLDLITNEESQNRFVMRSKILKYTRDYMDNQGFLEVETPVLHTIAGGAAAKPFITHHNALDMELYLRIALELHLKRLIVGGMDKVYEIGRVFRNEGTSTRHNPEFTMLESYAAYEDYEDVMDLVEGLVSTVCKQVNGTTEITYGEYKVDLTPNWRRIHMADAVKEYVGVDFWNVTSDEEARELAKKHDVPVTEHMTYGHILNEFFETYVEEKLIQPTFVYGHPVEISPLAKKNKEDERFTDRFELFIVGREHANAFSELNDPIDQRERFEAQMKEREQGNDEAHGMDADFLEALEYGLPPTGGLGIGIDRLVMLLTDAPSIRDILLFPTMKHRD” the “soluble on expression in E. coli” value was “not soluble”.
For “MEYELLIREAEPKDAAELVAFLNRVSLETDFTSLDGDGILLTSEEMEIFLNKQASSDNQITLLAFLNGKIAGIVNITADQRKRVRHIGDLFIVIGKRYWNNGLGSLLLEEAIEWAQASGILRRLQLTVQTRNQAAVHLYQKHGFVIEGSQERGAYIEEGKFIDVYLMGKLIG”, the “soluble on expression in E. coli” value was “soluble”.
With “MNITNEREDGEKMGSKNYTDVLIAGKIYTLGGLEEETYLQQVASYLNDKIAGLHRQDGFRKQPEDYQNVMTYLNIADDYFKEREHAGLLAVQKEELEKETYRLKHELVSTQMKLEAMRAELEKYKALETLEHSRGKEAEKEEQARK” the “soluble on expression in E. coli” value was “soluble”.
With “MDNHDDKSKSDRFCDINNNMTTQFDRLSINSDASLVITSSRLAMQGADETSDWTPNKYSWFKLVTPNPVETRVVQQKAQMKGLKIHKMVHNFIPSRKQGYLGYYNFDVKSYEESEKARNLFPTDFVDAFCCQHLLGKNEQEFVFHAVNENDLKILCCIATYCKETKLDAPLDPMQHLNNLNLFYEAINNERAFIIMKDFMSDNGMKYLCRLKKDITDIRDRRNNN” the “soluble on expression in E. coli” value was “not soluble”.
With “TKDFSWNSDFIFSHAKNEVTDLRGRTRMMELVSGNGFAREGYPVRGLFSIPFAGLDEKGIPMFDINGNITSTDINFQEREKLDYLKYEGPTDPTITGSFGNVFAYKGFKLNVFMTYSFGNVVRLNPYFNYKYSDLSAMPREFKNRWTLSGDEAKTNIPAILSNPQYEANRTLYKAYNAYNYSTERIAKGDFIRMKEISLSYEFPKSWISAAKISNLSLKLQATNLFLIYADKKLNGQDPEFFNTGGVASPVPRQFTLTLRLGL” the “soluble on expression in E. coli” value was “not soluble”.
In the case of “MSLKLLAIDSATQAATCAVMDDDKLLGEITFNYKKQHSVILMSMIDDMLNTVNLKVEDLDGFVVSKGPGSFTGLRIGMSIVKGLSEGSKKPFVSVSSLDALAYNMAYTPGIICPVLDALRDNVYTALYTFEGNSLKRLTEYDAIHITELIELLKGYDSQVTFIGDAVYKFRNFFDENVENVQFAPAHLNLVRSSSLCELGMELLKSGVKDDLITSAPIYIRKSQAEREYEKRTGMSIDDEGHHHHHH”, the “soluble on expression in E. coli” value is reported as “soluble”.
With “MPKLPLLLSFPLLFFASFAYADEDFVTCYSVLKFINANDGSRLHSHDVKYGSGSGQQSVTAVKNSDDINSHWQIFPALNAKCNRGDAIKCGDKIRLKHLTTGTFLHSHHFTAPLSKQHQEVSAFGSEAESDTGDDWTVICNGDEWLESEQFKLRHAVTGSYLSLSGQQFGRPIHGQREVVGTDSITGGSAWKVAEGIYIKHQQKDL” the “soluble on expression in E. coli” value was “soluble”.
In the case of “MGHHHHHHSHMMEGLDDGPDFLSEEDRGLKAINVDLQSDAALQVDISDALSERDKVKFTVHTKSSLPNFKQNEFSVVRQHEEFIWLHDSFVENEDYAGYIIPPAPPRPDFDASREKLQKLGEGEGSMTKEEFTKMKQELEAEYLAIFKKTVAMHEVFLCRVAAHPILRRDLNFHVFLEYNQDLSVRGK”, the “soluble on expression in E. coli” value is reported as “not soluble”.
For “MGSDKIHHHHHHMISQNRLRVLARELGVRQGYAEKNYVNSWILWGIFTSDFGENLMFKGGTALSKLYFPQSWRFSEDLDFGVEGQYNGSEDDLRDVLDTVTERSGIEFTISEHHESRQQHYPTHYVDMSIQYRAVLDHPNTTSLDVMVDEYVAFDSVHHTHSYEDIPEFELQAYSVEEIFAEKLRAIFQRGAARDYYDLYQLLETESVEIEFDVVLPAFEAKCDHDDLDVDLTTGLPGDQREDIQRQWETSLPDLTGDPPLFDTVWKRLDEAVIDKGTE”, the “soluble on expression in E. coli” value was “not soluble”.
